Measured values from patent US20210369850, “COMPOUNDS AND […] USES […]” (CENTAURI THERAPEUTICS LIMITED, published 2021).

Key:
Details in all cases: tags: endogenous on A431 cells (ATCC CRL-1555)
[1] = target: T1, EGFR (epidermal growth factor receptor) (Homo sapiens, UniProt P00533 P00533:25-1210); assay: flow
Description: (§1) A secondary phycoerythrin labelled anti-human IgG antibody was used to detect binding of alpha-galactosyl IgG antibody to the compound.
(§2) A431 cells (ATCC CRL-1555) were harvested and resuspended at 5×10⁶ cells/mL in phosphate buffered saline (PBS) (Sigma D8662)+0.1% BSA (Bovine Serum Albumin-Sigma A2153)+0.1 mg/mL Yeast t-RNA (Invitrogen 15401-011)+5 mM MgCl₂ (Sigma M1028) and incubated on ice for 30 minutes to block. 5×10⁵ cells were then incubated with compound at various concentrations as described below or buffer alone at room temperature, shaking at 450 rpm for 1 hour. The cells were washed with 3×200 μL PBS+0.1% BSA, prior to adding 50 μL of Anti-alpha galactosyl IgG antibody (custom purification from human IVIG, Rockland Immunochemicals, Inc.) at 45 μg/mL in PBS+0.1% BSA and incubating at 4° C. for 1 hour. […] After a final wash of 3×200 μL PBS+0.1% BSA the cells were resuspended in 200 μL PBS+0.1% BSA and evaluated on a flow cytometer (FC500 Beckman Coulter). Data from all samples were analysed in the Kaluza software package (Beckman Coulter).
(§3) The fold shift over background was calculated by dividing the Mean Fluorescence Intensity (MFI) obtained in the presence of 10 nM or 1 μM alphamer by the Mean Fluorescence Intensity (MFI) obtained in the absence of alphamer. […]

[2] = target: T1, EGFR (epidermal growth factor receptor); assay: flow; at 1 uM (5.9 at 10 nM); same conditions
Description: as §1, §2, §3

[3] = target: T1, EGFR (epidermal growth factor receptor); assay: flow; at 1 uM (5.5 at 10 nM); same conditions
Description: as §1, §2, §3

[4] = target: T1, EGFR (epidermal growth factor receptor); assay: flow; at 1 uM (5.7 at 10 nM); same conditions
Description: as §1, §2, §3

[5] = target: T1, EGFR (epidermal growth factor receptor); assay: flow; at 1 uM (7.1 at 10 nM); same conditions
Description: as §1, §2, §3

[6] = target: T1, EGFR (epidermal growth factor receptor); assay: flow; at 1 uM (6.5 at 10 nM); same conditions
Description: as §1, §2, §3

[7] = target: T1, EGFR (epidermal growth factor receptor); assay: flow; at 1 uM (4.2 at 10 nM); same conditions
Description: as §1, §2, §3

[8] = target: T1, EGFR (epidermal growth factor receptor); assay: flow; at 1 uM (2.5 at 10 nM); same conditions
Description: as §1, §2, §3

[9] = target: T1, EGFR (epidermal growth factor receptor); assay: flow; at 1 uM (3.8 at 10 nM); same conditions
Description: as §1, §2, §3

[10] = target: T1, EGFR (epidermal growth factor receptor); assay: flow; at 1 uM (6.4 at 10 nM); same conditions
Description: as §1, §2, §3

[11] = target: T1, EGFR (epidermal growth factor receptor); assay: flow; at 1 uM (5.8 at 10 nM); same conditions
Description: as §1, §2, §3

[12] = target: T1, EGFR (epidermal growth factor receptor); assay: flow; at 1 uM (7.0 at 10 nM); same conditions
Description: as §1, §2, §3

Binder: GGGAUUUAAUCGCCGUAGAAAAGCAUGUCAAAGCCGGAACCC (ssRNA, as N22 but 5' alpha-Gal moiety from Preparation 90) [RNA aptamer conjugate 4 (Example 26)]
- binding signal [1]: 3.3 fold MFI over background

Binder: GGGAUUUAAUCGCCGUAGAAAAGCAUGUCAAAGCCGGAACCC (ssRNA, as N22 but 5' alpha-Gal moiety from Preparation 88) [RNA aptamer conjugate 11 (Example 33)]
- binding signal [2]: 11 fold MFI over background

Binder: GGGAUUUAAUCGCCGUAGAAAAGCAUGUCAAAGCCGGAACCC (ssRNA, as N22 but 5' alpha-Gal moiety from Preparation 83) [RNA aptamer conjugate 8 (Example 30)]
- binding signal [3]: 10.5 fold MFI over background

Binder: GGGAUUUAAUCGCCGUAGAAAAGCAUGUCAAAGCCGGAACCC (ssRNA, as N22 but 5' alpha-Gal moiety from Preparation 89) [RNA aptamer conjugate 10 (Example 32)]
- binding signal [4]: 10.4 fold MFI over background

Binder: GGGAUUUAAUCGCCGUAGAAAAGCAUGUCAAAGCCGGAACCC (ssRNA, as N22 but 5' alpha-Gal moiety from Preparation 95) [RNA aptamer conjugate 14 (Example 36)]
- binding signal [5]: 12.4 fold MFI over background

Binder: GGGAUUUAAUCGCCGUAGAAAAGCAUGUCAAAGCCGGAACCC (ssRNA, as N22 but 5' alpha-Gal moiety from Preparation 92) [RNA aptamer conjugate 17 (Example 39)]
- binding signal [6]: 10.4 fold MFI over background

Binder: GGGAUUUAAUCGCCGUAGAAAAGCAUGUCAAAGCCGGAACCC (ssRNA, as N22 but 5' alpha-Gal moiety from Preparation 91) [RNA aptamer conjugate 12 (Example 34)]
- binding signal [7]: 7.6 fold MFI over background

Binder: GGGAUUUAAUCGCCGUAGAAAAGCAUGUCAAAGCCGGAACCC (ssRNA, as N22 but 5' alpha-Gal moiety from Preparation 85) [RNA aptamer conjugate 5 (Example 27)]
- binding signal [8]: 4.1 fold MFI over background

Binder: GGGAUUUAAUCGCCGUAGAAAAGCAUGUCAAAGCCGGAACCC (ssRNA, as N22 but 5' alpha-Gal moiety from Preparation 84) [RNA aptamer conjugate 7 (Example 29)]
- binding signal [9]: 8.2 fold MFI over background

Binder: GGGAUUUAAUCGCCGUAGAAAAGCAUGUCAAAGCCGGAACCC (ssRNA, as N22 but 5' alpha-Gal moiety from Preparation 97) [RNA aptamer conjugate 15 (Example 37)]
- binding signal [10]: 12.2 fold MFI over background

Binder: GGGAUUUAAUCGCCGUAGAAAAGCAUGUCAAAGCCGGAACCC (ssRNA, as N22 but 5' alpha-Gal moiety from Preparation 87) [RNA aptamer conjugate 9 (Example 31)]
- binding signal [11]: 12.5 fold MFI over background

Binder: GGGAUUUAAUCGCCGUAGAAAAGCAUGUCAAAGCCGGAACCC (ssRNA, as N22 but 5' alpha-Gal moiety from Preparation 86) [RNA aptamer conjugate 6 (Example 28)]
- binding signal [7]: 8.1 fold MFI over background

Binder: GGGAUUUAAUCGCCGUAGAAAAGCAUGUCAAAGCCGGAACCC (ssRNA, as N22 but 5' alpha-Gal moiety from Preparation 96) [RNA aptamer conjugate 13 (Example 35)]
- binding signal [10]: 12.3 fold MFI over background

Binder: GGGAUUUAAUCGCCGUAGAAAAGCAUGUCAAAGCCGGAACCC (ssRNA, as N22 but 5' alpha-Gal moiety from Preparation 98) [RNA aptamer conjugate 16 (Example 38)]
- binding signal [12]: 13.6 fold MFI over background
